This note sets out measurements from patent US20180088111A1 (published 2018).

A word on the Kd: it is the free concentration of one partner at which half of the binding sites on the other are occupied at equilibrium, for simple one-to-one binding. The term koff denotes a measure of how fast the partners let go of each other. What is called kon is the rate constant with which the complex forms.

Assay [1] concerns the target hPD1(25-167)-Myc-TVMV-His (human) (UniProt Q15116). The assay can be described thus: SPR (Biacore T200), hPD1(25-167)-His on chip, MIH4 analyte, in the presence of PDL-1 ('2M' [sic]). Background: In SPR one partner is held on a chip, and binding of the other changes the refractive index at the surface.
The target of assay [2] is hPD1(25-167)-3S-IG (human) (UniProt Q15116). Put plainly: SPR (Biacore T200), hPD1(25-167)-3S-IG on chip, MIH4 analyte, no PDL-1.
The target in assay [3] is hPD1(25-167)-Myc-TVMV-His (human) (UniProt Q15116). The assay can be described thus: SPR (Biacore T200), hPD1(25-167)-His coupled to CM5 chip, MIH4 0.195-50 nM as analyte.
Assay [4] shares this target. Put plainly: SPR (Biacore T200), hPD1(25-167)-His on chip, MIH4 analyte, no PDL-1.
Another assay has as its target T1, recombinant human PDL-1 (human, UniProt Q9NZQ7 19-239).
T1 construct: Bought (R&D Systems); whole entry named; also called hPDL-1; soluble human PDL-1
The assay can be described thus: SPR (ProteOn XPR36), hPD1(25-167)-His captured by His-tag on HTG chip, hPDL-1 0.125-2 µM as analyte, equilibrium analysis.

T1 sequence (Q9NZQ7 19-239 limits assumed): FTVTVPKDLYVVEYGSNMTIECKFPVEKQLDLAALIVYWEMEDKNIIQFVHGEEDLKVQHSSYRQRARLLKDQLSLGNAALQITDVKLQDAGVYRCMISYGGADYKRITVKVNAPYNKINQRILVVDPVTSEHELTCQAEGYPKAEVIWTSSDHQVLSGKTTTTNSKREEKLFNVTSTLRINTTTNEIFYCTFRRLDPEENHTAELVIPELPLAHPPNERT
Protocol for recombinant human PDL-1: The surface was activated by injecting nickel (II) ions at 30 μl/min for 120 s. All analyses were performed at 25° C. in a PBS-0.05% TWEEN® solution.
The surface was regenerated with 300 mM EDTA (pH 8.5) following BioRad's recommendations. The binding data were analyzed using the PROTEON MANAGER™ Software from Bio-Rad.
Soluble, human PDL-1 was injected into the mobile phase as an analyte.

Take MIH4 (antibody): in assay [1], the Kd came out at 2.9 nM, the off-rate constant (koff) stood at 0.00034 s⁻¹ and the kon was 120000 M⁻¹ s⁻¹. Further, in assay [2], the Kd is 0.5 nM, the off-rate constant (koff) worked out at 0.00024 s⁻¹ and the kon turned out to be 480000 M⁻¹ s⁻¹. This molecule also returned a response level (RU) in assay [3] of 0.2 to 49 RU. In assay [4], this molecule returned a Kd of 2.8 nM, a dissociation rate constant (koff) of 0.00038 s⁻¹ and a kon of 130000 M⁻¹ s⁻¹.

B1: hPD1(25-167)-Myc-TVMV-His (receptor)
chain: LDSPDRPWNPPTFSPALLVVTEGDNATFTCSFSNTSESFVLNWYRMSPSNQTDKLAAFPEDRSQPGQDCRFRVTQLPNGRDFHMSVVRARRNDSGTYLCGAISLAPKAQIKESLRAELRVTERRAEVPTAHPSPSPRPAGQFQEQKLISEEDLGSSETVRFQGHHHHHH
modifications: glycosylated (HEK293 expression)
notes: range 25-167; Expressed in HEK293-6E cells; glycosylated monomer in solution by SEC-MALS; also called hPD1(25-167)-His; hPD-1(25-167)-His
Turning to B1, the Kd in the assay with recombinant human PDL-1 stood at 2800 nM.
